Molecular target: VEE capsid protein (Venezuelan equine encephalitis virus, UniProt P09592 P09592:1-275)
Test: EMSA
Conditions: label: biotin

VEE capsid protein, sequence (P09592 1-275, one chain of several): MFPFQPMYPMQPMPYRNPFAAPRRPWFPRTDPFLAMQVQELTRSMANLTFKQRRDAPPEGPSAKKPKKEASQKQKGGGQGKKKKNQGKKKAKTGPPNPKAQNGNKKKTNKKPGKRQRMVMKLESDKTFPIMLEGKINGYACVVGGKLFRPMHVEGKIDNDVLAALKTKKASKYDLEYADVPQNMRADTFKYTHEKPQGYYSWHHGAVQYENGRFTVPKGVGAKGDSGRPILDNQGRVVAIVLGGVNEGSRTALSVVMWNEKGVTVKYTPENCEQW

Row | Binder | binding result
1 | GGGAGCUCAGAAUAAACGCUCAAGGCCCUUGCGCCCACACGCAAGC (ssRNA) [KLG_5_46] | binds
2 | GGUUGCGCCCACACGCAAACACCGCCCUUCGACAUGAGGCCCGGC (ssRNA) [KLG_M_45] | binds

Reference: patent US20060172925, “Thio-siRNA aptamers” (Board Of Regents, The University Of Texas System, published 2006)
